According to the DeepSol protein solubility set:

Experiment: soluble on expression in E. coli; label from the status in PepcDB or PDB records

Sequence	soluble on expression in E. coli
GSGGARGLYLQTVTYNFLKEQGDNRIVRTQALPATRGTVSDRNGAVLALSAPTESLFAVPKDMKEMPSAAQLERLSELVDVPVDVLRNKLEQKGKSFIWIKRQLDPKVAEEVKALGLENFVFEKELKRHYPMGNLFAHVIGFTDIDGKGQEGLELSLEDSLYGEDGAEVVLRDRQGNIVDSLDSPRNKAPQNGKDIILSLDQRIQTLAYEELNKAVEYHQAKAGTVVVLDARTGEILALANTPAYDPNRPGRADSEQRRNRAVTDMIEPGSAIKPFVIAKALDAGKTDLNERLNTQPYKIGPSPVRDTHVYPSLDVRGIMQKSSNVGTSKLSARFGAEEMYDFYHELGIGVRMHSGFPGETAGLLRNWRRWRPIEQATMSFGYGLQLSLLQLARAYTALTHDGVLLPLSFEKQAVAPQGKRIFKESTAREVRNLMVSVTEPGGTGTAGAVDGFDVGAKTGTARKFVNGRYADNKHVATFIGFAPAKNPRVIVAVTIDEPTAHGYYGGVVAGPPFKKIMGGSLNILGISPTKPLTAAAVKTPS	soluble
GADNNKWKPLFGKNLENANYNPEVWSETDGVLGAVKDESIWTKDEYENFELDLDFKTDVGTNSGVVVYCTDTKDWIPNSVEIQIADDHCEKWGNGKPYEKCGAIYGHLGAVQDKVVKKPGEWNHMRIKCAGQHIMVILNGKKVTEMDMSKWTSGTKNPDGSDIPSWLPKPFAELPTKGFIGLQGKHGDSLIWFRNIKIRSL	soluble
MVWSSETFGMTPEEQIEWMALDDQEKKKLERKRARNRQAATKCRQKKMDRIKELEEQVLHEKHRGQRLDAELLELNRALEHFRRTVEHHSGNGCPNNSIRV	not soluble
MSLELENFQEYNDPVLYDKENRYTGDIPFLLKWAGKVDGTIVDLACGTGRATIPLASKGYKLMGVDVHKGMLEAAREKSSRLNLPIEWIKQDCTKLSLNLMSPFIYSVGNVFQHFLTNEEQDSFLTSVNKHLKESGIFIFDTRFPSKEELLQPNTEEYWKSYQDTDTGQKVDVYTISQYDPLTQIQHYTMIRKSVNAEGLAVNEKRTNIRLRYVFPKEMERLLSANGFEIIDVYQDWQETPLTRDSDQMIYVCKKSSEGHHHHHH	soluble
MNYKVTAEAIPDYQSKNAPISSYWMPDKFLEWSAENDKDLVYNQSRVPLTKRISPDKLSPSNQNQNKKTKIVALSMMNSQTSGNPSRGTTKFESYTFDYWQYIDTLVYWGGSSGEGIIVTPSADVIDEAHSNGVPVLGTIFLPPKEYGGKVDWVKTMLKKDEQGQYPFASQMVKVAKTYGFEGWFINEETQGLNADDAANMKALIQQVKKEDSSLQIMWYDAMTKDGKVDWQNQLNDQNATFVQDKAADAMFLNFWWTQNNLADQKLLEKSNLYAKNHNIDPYNIYAGIDVQAKDVQTPVKWNLLEKGNQATQTSIGLYAASATYTNASNWDDFQNRESAFWVNQKADPRQVDHSVNESWTGLSKYVLEKSAISGNEFNTNFNLGNGYNYFKAGQKISEMDWNDRSLAGILPSYRWIIDNEGKNKISPSFDFANAYNGGNSLKFMAEHLDAGKLEHHHHHH	not soluble
TSSLSYWQGEAFRRGFDSRGRFDDVLKILLLLDAAQKEGKALPVQEFRRHINMGYDELGELLEKLARHGYIYSGRQGWVLKTGADSIELNELFKLFVYRPLPVERDHVNQAVDAVMTPCLQTLNMTLAEFDAQAKKRQ	not soluble
MGSDKIHHHHHHMIDIHCHILPEIDDGPSSLEESLVMAREAVKEGITKIIATPHHLHPSYNNKAAVVKEKVRKLNEAIQKENIPLEILPGQEVRISGDVMDGLVSGDILTLADQGKYLFVEFSSNHVSRYADKLFFQLLSQDIIPIIVHPERNHEFLKNPGLLYDLVNGGALTQITTSSLTGHLGKKIKKFTEQIIEADLTHFLASDAHNVTERTFRIREAFALVEKNYGSSKAYEFQENAELLVENQHVMGPPPQPIVKKKLLGIF	not soluble
MAIRRLRTIFVSLLLGLAASATQAADRSDRNVTAKLEGRFEWDFALFDNDTRGTPNRSNNEIRRFWLDVTGKVFAFDYTIEGNFTNLQDKFKGKSIEMGDVYLRHDFGNTGTLTLGQFKQHFSLDDRTSPDYGQFLERSGGANTLAPEYHKGVSWKATHQNTTWWVSAYSLDSISLSNVNGRGLGGRGTWSPDTPEGDVLHLGLSLAHQRYDHPGSDGMTALSIRPLPAGHLSDNSGITLAHFANGRDTKVNRWALEYAQVRGPLSWQSEYIGGAFNDGMQRATVQSAYGFVSWFVTGESRTYDRKTGRFTRIKTLHNPRGALELALRYDRMWGNQHHNNQPNFLNASTASCTLGVNWYIKPNLRLMLNLIDSRNRDRLAGTVLDHTRALTGRLHYDF	not soluble
MGTFNNSIQEKIEKLQKTVDTLLHMGENMDCICVDDLSLLNKEIHEQINDLYPYHGKTAEQEAALCLSLLMGYSVSMYANSEDEAKKKTVLRRSQMILKNQLPSPLKIQLHTIYDKLLS	not soluble
MDHHHHHHHHMPRTTGMNVAVVGGGISGLAVAHHLRSRGTDAVLLESSARLGGAVGTHALAGYLVEQGPNSFLDREPATRALAAALNLEGRIRAADPAAKRRYVYTRGRLRSVPASPPAFLASDILPLGARLRVAGELFSRRAPEGVDESLAAFGRRHLGHRATQVLLDAVQTGIYAGDVEQLSVAATFPMLVKMEREHRSLILGAIRAQKAQRQAALPAGTAPKLSGALSTFDGGLQVLIDALAASLGDAAHVGARVEGLAREDGGWRLIIEEHGRRAELSVAQVVLAAPAHATAKLLRPLDDALAALVAGIAYAPIAVVHLGFDAGTLPAPDGFGFLVPAEEQRRMLGAIHASTTFPFRAEGGRVLYSCMVGGARQPGLVEQDEDALAALAREELKALAGVTARPSFTRVFRWPLGIPQYNLGHLERVAAIDAALQRLPGLHLIGNAYKGVGLNDCIRNAAQLADALVAGNTSHAP	soluble
MDRPVRVLFVCLGNICRSPMAEGIFRKLLKERGLEDRFEVDSAGTGAWHVGEPMDPRARRVLEEEGAYFPHVARRLTREDVLAYDHILVMDRENLEEVLRRFPEARGKVRLVLEELGGGEVQDPYYGDLEDFRKVYWTLEAALQAFLDRHGSPSPAAEGRA	soluble
MAPKTGETVVEKMEVDEAKQDVPATEPAKDLNAIAVENIKEQLAALDKGEEHLITRVLQVLPKTRKQINDNVLYKLVSSHLSSDAQFAEGMLKYLHYTPAADTEVQPMDTSNVKTKSPKKGVKPVFASPESDCYLRLLVLLHLYAQKKNTEALALGENQLTSIYNFDRRTLDGLAAKTLYFLCVIYEREGRLFDHQGFLNSRLRTATLRNFSESQAVLICWLLRCYLINRQYQSAAHLVSKVAFPDNASNNDLARYMYYQGRIKALQLDYNSAAGYFLQAQRKAPQEGAIGFKQAVQKWVVVIGLLQGEIPDRSVFRQPIYRKCLAHYLDLSRGVRDGDVARFNHNLEQFKTQFEADDTLTLIVRLRQNVIKTAIKQISLAYSRIYIKDIAKKLYITNETETEYIVAKAIADGAIDAVITSDVRDGPRYMQSSETADIYRTSEPQAHFDTRIRYCLELHNQAVKALRYPPKKKIAVETIEQAREREQQELEFAKELADEDDDDF	not soluble
YPNASPLLGSSWGGLIHLYTATARNSYHLQIHKNGHVDGAPHQTIYSALMIRSEDAGFVVITGVMSRRYLCMDFRGNIFGSHYFDPENCRFQHQTLENGYDVYHSPQYHFLVSLGRAKRAFLPGMNPPPYSQFLSRRNEIPLIHFNTPIPRRHTR	soluble
SVRVMQLTLGNSTITTQEAANSVVAYGRWPEYIKDSEANPVDQPTEPDVAACRFYTLDTVTWRKESRGWWWKLPDALKDMGLFGQNMFYHYLGRAGYTVHVQCNASKFHQGALGVFAVPEMCLAGDSTTHMFTKYENANPGEKGGEFKGSFTLDTNATNPARNFCPVDYLFGSGVLAGNAFVYPHQIINLRTNNCATLVLPYVNSLSIDSMTKHNNWGIAILPLAPLDFATESSTEIPITLTIAPMCCEFNGLRNITVPRTQ	soluble
MGSDKIHHHHHHMRNAVIFTGIPMQYPLELTFKFWALAPQISVIDAQGNLVFYVKQKLFKLKEAITIFADVERTRPLYYIKADRIIDFSARYEFTDSNGTNIGAVKRRGLKSLWRARYDIFDGDTTTLNIQEKNPWVKIADALFAEIPIVGIFTGYVFNPVYLVSRSDGTVVMRLEKIPSFLSRKFTIKQVDQISDREEQQVLLSLMMMLLLERNRG	not soluble
MGSDKIHHHHHHMNIAMFSDTYAPQINGVATSIRVYKKKLTERGHKVVVVAPSAPEEEKDVFVVRSIPFPFEPQHRISIASTKNILEFMRENNVQIIHSHSPFFIGFKALRVQEEMGLPHVHTYHTLLPEYRHYIPKPFTPPKRLVEHFSAWFCNMTNVVIAPTEDIKRELESYGVKRPIEVLPTGIEVEKFEVEAPEELKRKWNPEGKKVVLYAGRIAKEKNLDFLLRVFESLNAPGIAFIMVGDGPEREEVEEFAKEKGLDLKITGFVPHDEIPLYYKLGDVFVFASKTETQGLVLLEALASGLPVVALKWKGVKDVLKNCEAAVLIEEENERLFAEKIKHILKNDRLREELSTKGREFVRKEWSVDRFVQRLEEIYTRAIEEGPVEINTSLMIKEFVKFEKLKEFFSKIEDRIWR	not soluble
MAHHHHHHMNCKNMDTSYEIINYLTKDELDIDLSCMDKKERYKIWKRLPKCELHCHLDVCFSVDFFLNVIRKYNIQPNMSDEEIIDYYLFSKPGKSLDEFVEKALRLTDIYIDYTVVEDLAKHAVFNKYKEGVVLMEFRYSPSFMSFKHNLDKDLIHEAIVKGLNEAVALLEYKIQVGLLCTGDGGLSHERMKEAAEFCIKHKKDFVGYDHAGHEVDLKPFKDIFDNIREEGISLSVHAGEDVSIPNLNSLYTAINLLHVKRIGHGIRVSESQELIDLVKEKDILLEVCPISNVLLNNVKSMDTHPIRMLYDAGVKVSVNSDDPGMFLTNITDNYEELYTHLNFTLADFMKMNLWAVQKSFVDPDIKNKIISKYF	soluble
MHAQFHHVSLLARHGQENQSFYTKLLGLRFVKNTVNQDNNRMPHYFYGDYQGTPGSLVTFFIVPLLGNRYEEKNYLATIGLKIPQNSLSFWEQRLTENKIPFNKKEKSLHFSDPDDTHIILTEVPENPLKETLVVSNDIPAAVQIIGLASTEFHVPDSEKTLAFFETFLGWQAVGNTIILSETESFSVHQTTSDKTSRMGRGSMDHIAFSVADDEALQELHTRALAQGWEIEMYVSRGYFKSLYIREPGGNRVEFATLTPGFTLDEPLEHLGETLALPPFLEPKRTAIEANLYKDM	not soluble
MGSDKIHHHHHHMILSRGRNYVFIHIPKTGGTALALALESRAMAGDEMLGDTPKAVKRRRRLHGTETRGRLWKHSTLADIEGLASREELRQMFAFTLVRNPFDRVVSLYHWLKEQSFDHPMVPLAHSLPFTSFVTDPLVMRALKSQPALSYMMQSDGYEHCSLYIRLEYFAKDAAPLFDHLGFALELPRVNESRRDPDWRVYYDSQAVDAVRTCCQLEIERFEYSFNDYPLSL	not soluble
MGSDKIHHHHHHAPGQTAQPGRPPTQPQGWSMTVGLAPVYGMAWQGSKDTALSIFPDLRVNYKDALFLSVPEGLGWNAVNANGWKAGPLLKARFGRNEDDGGSPFQIAGGSDALRGMGDIGIAGEAGAFVEKRFGTRQQWRARAEVRQGFGGHEGIVGDISLNWSGRTGRTILSAGPRATFASREYMQTYFGVDAVQASRTGLAASRLGGGLVSYGLGASIVQPLDRRRAVTVFGGADRLGGEPAGSSLIRERGQRTQFVVGVGYGFRFGL	not soluble
GSTIAPEEHYTPEEASSREETAWDTAAEEVELLAADGAVHNQELFLECTTSPLIFASAMLNFGVHQILDTLCELAPQPHGRESDERAVEAATGAFDSSREVTDEFSGVVFKVQAGMDKNHRDSLAFMRVVSGEFDRGMQVTHAQSGRSFSTKYALTVFGRTRSTVESAFPGDIVGLVNAGSLAPGDTIFAGRKVQYPPMPQFAPEHFRTLRAKSLGKYKQFRKALDQLAAEGVVQILKNDARGDAAPVMAAVGPMQFEVMMARMQNEYNVETVADPIPYSVARRTTPETATELAKQRGVEIFTRTDGELVALFGDKWKLAFIEKEHPEFELLPMVAD	not soluble
